One molecule from US20180291083A1 can be followed below.

This assay addresses HLA-B*07:02 (human). Briefly: UV ligand exchange ELISA; exchange yield grade. Particulars: remark: other sources report otherwise. In general terms: In an ELISA, binding on a coated surface is turned into a signal by an enzyme label.

YPGWHSTTI […] came in with a peptide exchange yield of 20 to 50%.
